Assay results taken from article PMC5131608.

Biological target: Tt1219^33-236 (T. thermophilus HB8)
Experiment: SEC; size exclusion chromatography of Tt1219^33-236 alone (Supplementary Fig. 1)

Tt1219^33-236 (domain or fragment) showed a stoichiometry N of 2.
